Measured values as given in patent publication US20050153395A1, “Unique integrin binding site in connective tissue growth factor (CTGF)” (CHILDREN'S HOSPITAL INC., priority 2003, published 2005).

Key:
PSCs [1] = assay: PSC DNA synthesis, [3H]thymidine incorporation; type: cell-based, rat; conditions: 24 hours; CTGF1-4 effect in 0.1% serum, not in serum-free medium
Experimental: To measure the effect of CTGF on cell proliferation, DNA synthesis was measured by ^3H incorporation in PSCs. The cells were incubated for 24 hours with 0.2 μCi [^3H] thymidine in each well (24-well plate). The incorporation of [^3H] thymidine into PSC DNA was determined using a scintillation counter after the cells had been washed with PBS, fixed with 10% methanol, treated with cold 5% trichloroacetic acid, and lysed in 0.3 N NaOH.

[2] = tested on: pancreatic stellate cells (PSC); assay: PSC adhesion assay on coated wells; type: cell-based, rat; conditions: coated at 2 μg/ml
Text: Rat PSCs were isolated by a modification of the method described by Phillips et al., Gut; 52:677-82, 2003. Briefly, pancreatic tissue was digested in situ with 0.03% collagenase P (Roche, Indianapolis, Ind.) in HBSS by perfusion through the thoracic aorta. This protocol was approved by the Institutional Animal Care and Use Committee of Children's Research Institute, Columbus, Ohio. The tissue was pooled, minced with scissors, and then digested with 0.05% collagenase P, 0.02% protease XIV (Sigma, St. Louis), and DNase I (Roche, Indianapolis, Ind.) in HBSS. The resulting cell suspension was centrifuged in a 12% Optiprep gradient at 1400 g for 14 minutes. Stellate cells separated into a hazy band just above the interface of a the gradient and the aqueous buffer. This band was harvested, and the cells washed and resuspended in DMEM supplemented with 25 mM Hepes buffer, 10% FBS, and 100 U/ml penicillin in, 100 μg/ml streptomycin. The, cells were maintained at 37° C. in a humidified atmosphere of 5% CO2/95% air.
The ability of activated PSC to adhere to non-tissue culture plastic microtiter wells coated with recombinant CTGF1-4, CTGF3-4 or CTGF4 was investigated. The solid phase binding assay was carried out as described in Example 2. […] To assess the possibility that CTGF-mediated PSC adhesion involved cell surface integrins, the effect of divalent cations on cell adhesion was examined, as described in Example 2. […]
Because CTGF is a heparin-binding protein, this property was further investigated.
To identify the peptides that bind to PSCs, cell adhesion assays were carried out as described in Example 3.
To further investigate the peptide binding, P2 or P5 (10 μM) or vehicle buffer alone (no add) were added to PSC cell suspensions for 30 minutes at room temperature.

integrin α5β1 = integrin α5β1 (Homo sapiens, UniProt P05556+P08648); assay: Solid phase ELISA of integrin α5β1 binding; conditions: for binding to integrin α5β1: coated at 2 μg/ml, 1 μg/ml integrin
Experimental: In a second approach, a solid phase binding assay was used in which CTGF1-4 or FN were individually coated onto microtiter wells that were subsequently incubated with purified integrin α5β1. The presence of immobilized integrin α5β1 was detected by ELISA using an anti-integrin α5β1 antibody similar to the methods described in Example 3 above. In addition, CTGF1-4 bound to integrin α5β1 in a dose-dependent manner, with maximal binding at 2 μg/ml CTGF. This level of CTGF1-4 (2 μg/ml) binding was the same as that elicited by 2 μg/ml FN, a well known ligand of integrin α5β1. In a similar experiment, 2 μg/ml of CTGF1-4;CTGF3-4 or CTGF4 were individually precoated onto microtiter wells. Using the solid-phase assay, integrin α5β1 bound to CTGF1-4, CTGF3-4 or CTGF4 See FIG. 5 (Panel B).
To directly analyze whether α5β1 integrin binds to CTGF4, microtiter wells coated with CTGF4 (2 μg/ml) or FN (4 μg/ml) were used in an ELISA assay to detect integrin binding, as described in Example 3. For these assays, 1 μg/ml integrin α5β1, alone or in the presence of 35 μM of P2peptide (CTGF[257-272]) and 35 μM of P5 peptide (CTGF [285-291]), were added to the precoated plates. […] The binding between CTGF4 and integrin α5 β1 was blocked by peptide P5 (CTGF [285-291]) or peptide P2 (CTGF[257-272]). […]

collagen I mRNA = assay: Collagen I mRNA expression in PSCs; type: cell-based, rat
PSCs [3] = assay: PSC chemotaxis (migration) assay in culture insert; type: cell-based, rat; conditions: substance in lower chamber
Experimental: To examine whether CTGF plays a role in PSC migration, a chemotaxis assay was carried out in which the migratory behavior of PSCs in the upper chamber of a culture insert was assessed following addition of CTGF to the lower chamber. […] PSC migration was also promoted by FN, PDGF or TGF-β1.

[4] = tested on: hepatic stellate cells (HSC); assay: HSC adhesion assay on coated wells (CyQUANT fluorescence); type: cell-based, rat
Experimental: CTGF4 is known to be expressed in hepatic stellate cells (HSC) and to induce proliferation and extracellular matrix (ECM) production in these cells. (Williams et al., J Hepatol 32, 754-761, 2000; Paradis et al., Lab Invest 82, 767-774, 2002). The following experiments were carried out to determine if HSCs adhere to CTGF. HSCs were isolated from normal Sprague-Dowley rate by sequential perfusion with pronase/collagenase and purified by density gradient separation as described in Vyas et al. (Gastroenterology 109: 889-898, 1995).
The cells were subsequently detached using 1 mM EDTA PBS (137 mM NaCl, 2.7 mM KCl, 4.3 mM Na2HPO4, 1.4 mM KH2PO4, pH 7.3), washed twice in DMEM and resuspended in serum free medium containing 0.5% BSA. The cells-were plated (1.25×10^4 cells/well) in a 96 well plate coated with one of the following: 2 μg/ml CTGF isoform (CTGF1-4, CTGF3-4, CTGF4), 1 μg/ml laminin, or 4 μg/ml vitronectin and incubated for 20 minutes at 37° C. Subsequently the cells were washed with PBS and the adherent cells were fixed with 10% formalin and stained with CyQUANT GR dye/cell lysis buffer (Molecular Probes , Eugene, Oreg.) according to the manufacturer's instructions. The number of cells that adhered to CTGF isoforms or ECM protein was quantified by measuring the sample fluorescence intensity at Ex/Em: 480/520 nm using a micro-plate reader (CytoFluor™ 2350).
To determine if the CTGF-mediated HSC adhesion was carried out through integrin receptors, the experiment described above were carried out in the presence and absence of 10 mM EDTA. […] It is widely believed that Mn^2+ induces conformational shifts that mimic the physiological activation of β1 and β3 integrins (Roberts et al., J Biol Chem 278: 1975-1985, 2003, van der Pauw et al., J Periodontal Res 37: 317-323, 2002) as Mn^2+-induced activation leads to enhanced ligand-binding affinity and cell adhesion (Mould et al., J Biol Chem 277: 19800-19805, 2002, Loftus & Liddington J Clin Invest 100: S77-81, 1997, Lin et al., J Biol Chem 272: 14236-14243, […]). […]

integrin α5β1, sequence (P08648 42-894 limits assumed): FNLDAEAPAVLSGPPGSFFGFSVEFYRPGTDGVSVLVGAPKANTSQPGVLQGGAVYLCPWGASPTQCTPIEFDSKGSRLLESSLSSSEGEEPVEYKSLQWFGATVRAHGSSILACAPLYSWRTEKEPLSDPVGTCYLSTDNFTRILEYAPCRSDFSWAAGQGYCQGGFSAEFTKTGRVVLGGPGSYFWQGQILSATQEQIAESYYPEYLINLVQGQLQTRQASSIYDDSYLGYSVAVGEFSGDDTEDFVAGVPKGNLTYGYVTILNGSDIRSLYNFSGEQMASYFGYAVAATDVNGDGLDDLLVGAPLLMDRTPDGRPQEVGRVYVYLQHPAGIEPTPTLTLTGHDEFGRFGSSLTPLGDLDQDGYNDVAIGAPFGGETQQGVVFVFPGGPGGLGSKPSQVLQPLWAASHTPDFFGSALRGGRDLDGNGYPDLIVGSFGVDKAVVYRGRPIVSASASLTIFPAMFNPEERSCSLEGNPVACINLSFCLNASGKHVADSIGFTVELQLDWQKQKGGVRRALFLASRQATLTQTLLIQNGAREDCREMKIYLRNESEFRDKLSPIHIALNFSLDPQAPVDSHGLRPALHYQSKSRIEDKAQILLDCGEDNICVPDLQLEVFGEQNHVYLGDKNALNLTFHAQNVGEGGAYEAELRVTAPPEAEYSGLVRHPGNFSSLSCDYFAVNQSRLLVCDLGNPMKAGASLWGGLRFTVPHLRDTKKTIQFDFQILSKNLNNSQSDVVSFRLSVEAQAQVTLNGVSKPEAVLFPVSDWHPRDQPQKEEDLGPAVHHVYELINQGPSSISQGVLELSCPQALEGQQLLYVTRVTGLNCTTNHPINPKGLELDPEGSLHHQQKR
integrin α5β1, sequence (P08648 895-1049 partner limits assumed): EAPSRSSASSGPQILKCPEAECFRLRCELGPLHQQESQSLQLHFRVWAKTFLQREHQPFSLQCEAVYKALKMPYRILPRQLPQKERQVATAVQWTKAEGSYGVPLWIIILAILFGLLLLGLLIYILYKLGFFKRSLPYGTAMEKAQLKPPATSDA
integrin α5β1, sequence (P05556 21-798): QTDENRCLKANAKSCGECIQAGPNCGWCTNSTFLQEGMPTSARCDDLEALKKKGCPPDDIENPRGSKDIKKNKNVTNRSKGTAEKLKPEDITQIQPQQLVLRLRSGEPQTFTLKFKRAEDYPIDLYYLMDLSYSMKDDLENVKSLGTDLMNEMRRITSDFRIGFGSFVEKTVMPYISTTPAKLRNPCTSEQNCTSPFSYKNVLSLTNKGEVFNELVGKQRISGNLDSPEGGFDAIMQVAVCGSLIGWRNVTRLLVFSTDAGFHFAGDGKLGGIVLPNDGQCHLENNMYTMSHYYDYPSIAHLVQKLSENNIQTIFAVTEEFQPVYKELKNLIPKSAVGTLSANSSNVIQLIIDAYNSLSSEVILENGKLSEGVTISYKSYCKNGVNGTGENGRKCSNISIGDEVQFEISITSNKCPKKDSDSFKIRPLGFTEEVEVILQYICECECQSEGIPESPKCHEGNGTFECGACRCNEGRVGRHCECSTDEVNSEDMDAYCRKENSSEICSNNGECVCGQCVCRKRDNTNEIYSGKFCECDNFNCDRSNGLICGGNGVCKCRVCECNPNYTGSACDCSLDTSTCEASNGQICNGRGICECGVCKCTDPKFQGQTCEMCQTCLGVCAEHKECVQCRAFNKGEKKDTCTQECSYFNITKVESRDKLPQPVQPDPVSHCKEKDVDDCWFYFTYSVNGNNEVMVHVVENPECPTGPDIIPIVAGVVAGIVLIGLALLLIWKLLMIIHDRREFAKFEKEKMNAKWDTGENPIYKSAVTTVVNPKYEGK

Row | Molecule | PSC proliferation (DNA synthesis) (PSCs [1]) | PSC adhesion supported by the coated substance [2] | binding to integrin α5β1 (integrin α5β1) | binding to integrin α5β1, maximal binding at (integrin α5β1; coated protein) [µg/mL] | collagen I mRNA expression in PSCs (collagen I mRNA) | PSC migration (PSCs [3]) | inhibition of HSC adherence to CTGF[257-272] ([4]; peptide-coated wells, heparin 2 μg/ml) | inhibition of CTGF4-mediated HSC adhesion ([4]; wells coated 2 μg/ml CTGF4, EDTA 10 mM, GRGDsp 1 mM, Echistatin 2 μM, antibody/IgG 25 μg/ml, heparin 2 μg/ml) | inhibition of vitronectin-mediated HSC adhesion ([4]; wells coated 4 μg/ml vitronectin)
1 | CTGF1-4: full length CTGF protein, 38 kDa (protein) QNCSGPCRCPDEPAPRCPAGVSLVLDGCGCCRVCAKQLGELCTERDPCDPHKGLFCDFGSPANRKIGVCTAKDGAPCIFGGTVYRSGESFQSSCKYQCTCLDGAVGCMPLCSMDVRLPSPDCPFPRRVKLPGKCCEEWVCDEPKDQTVVGPALAAYRLEDTFGPDPTMIRANCLVQTTEWSACSKTCGMGISTRVTNDNASCRLEKQSRLCMVRPCEADLEENIKKGKKCIRTPKISKPIKFELSGCTSMKTYRAKFCGVCTDGRCCTPHRTTTLPVEFKCPDGEVMKKNMMFIKTCACHYNCPGDNDIFESLYYRKMYGDMA | significantly enhanced | significantly promoted | bound | 2 | significantly increased | induced PSC migration |  |  | 
2 | CTGF3-4: C-terminal CTGF fragment comprising modules 3 and 4 (protein) AYRLEDTFGPDPTMIRANCLVQTTEWSACSKTCGMGISTRVTNDNASCRLEKQSRLCMVRPCEADLEENIKKGKKCIRTPKISKPIKFELSGCTSMKTYRAKFCGVCTDGRCCTPHRTTTLPVEFKCPDGEVMKKNMMFIKTCACHYNCPGDNDIFESLYYRKMYGDMA |  | significantly promoted | bound |  |  | induced PSC migration |  |  | 
3 | Heparinase I: enzyme that acts on highly sulfated heparan sulfate proteoglycans (protein, UniProt Q05819 22-384, looked up) Heparin lyase I: QQKKSGNIPYRVNVQADSAKQKAIIDNKWVAVGINKPYALQYDDKLRFNGKPSYRFELKAEDNSLEGYAAGETKGRTELSYSYATTNDFKKFPPSVYQNAQKLKTVYHYGKGICEQGSSRSYTFSVYIPSSFPDNATTIFAQWHGAPSRTLVATPEGEIKTLSIEEFLALYDRMIFKKNIAHDKVEKKDKDGKITYVAGKPNGWKVEQGGYPTLAFGFSKGYFYIKANSDRQWLTDKADRNNANPENSEVMKPYSSEYKTSTIAYKMPFAQFPKDCWITFDVAIDWTKYGKEANTILKPGKLDVMMTYTKNKKPQKAHIVNQQEILIGRNDDDGYYFKFGIYRVGNSTVPVTYNLSGYSETAR |  |  |  |  |  |  | abrogated | unable to adhere | adhered to vitronectin
